B1: Disease resistance protein RRS1 (Arabidopsis thaliana (Mouse-ear cress)), P0DKH5 (parent)
chain: MTNCEKDEEFVCISCVEEVRYSFVSHLSEALRRKGINNVVVDVDIDDLLFKESQAKIEKAGVSVMVLPGNCDPSEVWLDKFAKVLECQRNNKDQAVVSVLYGDSLLRDQWLSELDFRGLSRIHQSRKECSDSILVEEIVRDVYETHFYVGRIGIYSKLLEIENMVNKQPIGIRCVGIWGMPGIGKTTLAKAVFDQMSSAFDASCFIEDYDKSIHEKGLYCLLEEQLLPGNDATIMKLSSLRDRLNSKRVLVVLDDVRNALVGESFLEGFDWLGPGSLIIITSRDKQVFCLCGINQIYEVQGLNEKEARQLFLLSASIKEDMGEQNLQELSVRVINYANGNPLAISVYGRELKGKKKLSEMETAFLKLKRRPPFKIVDAFKSTYDTLSDNEKNIFLDIACFFQGENVNYVIQLLEGCGFFPHVEIDVLVDKCLVTISENRVWLHKLTQDIGREIINGETVQIERRRRLWEPWSIKYLLEYNEHKANGEPKTTFKRAQGSEEIEGLFLDTSNLRFDLQPSAFKNMLNLRLLKIYCSNPEVHPVINFPTGSLHSLPNELRLLHWENYPLKSLPQNFDPRHLVEINMPYSQLQKLWGGTKNLEMLRTIRLCHSHHLVDIDDLLKAENLEVIDLQGCTRLQNFPAAGRLLRLRVVNLSGCIKIKSVLEIPPNIEKLHLQGTGILALPVSTVKPNHRELVNFLTEIPGLSEELERLTSLLESNSSCQDLGKLICLELKDCSCLQSLPNMANLDLNVLDLSGCSSLNSIQGFPRFLKQLYLGGTAIREVPQLPQSLEILNAHGSCLRSLPNMANLEFLKVLDLSGCSELETIQGFPRNLKELYFAGTTLREVPQLPLSLEVLNAHGSDSEKLPMHYKFNNFFDLSQQVVNDFLLKTLTYVKHIPRGYTQELINKAPTFSFSAPSHTNQNATFDLQSGSSVMTRLNHSWRNTLVGFGMLVEVAFPEDYCDATDVGISCVCRWSNKEGRSCRIERKFHCWAPWQVVPKVRKDHTFVFSDVNMRPSTGEGNDPDIWAGLVVFEFFPINQQTKCLNDRFTVRRCGVRVINVATGNTSLENIALVLSLDPVEVSGYEVLRVSYDDLQEMDKVLFLYIASLFNDEDVDFVAPLIAGIDLDVSSGLKVLADVSLISVSSNGEIVMHSLQRQMGKEILHGQSMLLSDCESSMTENLSDVPKKKKKHSESRVKKVVSIPAIDEGDLWTWRKYGQKDILGSRFPRGYYRCAYKFTHGCKATKQVQRSETDSNMLAITYLSEHNHPRPTKRKALADSTRSTSSSIC
partner: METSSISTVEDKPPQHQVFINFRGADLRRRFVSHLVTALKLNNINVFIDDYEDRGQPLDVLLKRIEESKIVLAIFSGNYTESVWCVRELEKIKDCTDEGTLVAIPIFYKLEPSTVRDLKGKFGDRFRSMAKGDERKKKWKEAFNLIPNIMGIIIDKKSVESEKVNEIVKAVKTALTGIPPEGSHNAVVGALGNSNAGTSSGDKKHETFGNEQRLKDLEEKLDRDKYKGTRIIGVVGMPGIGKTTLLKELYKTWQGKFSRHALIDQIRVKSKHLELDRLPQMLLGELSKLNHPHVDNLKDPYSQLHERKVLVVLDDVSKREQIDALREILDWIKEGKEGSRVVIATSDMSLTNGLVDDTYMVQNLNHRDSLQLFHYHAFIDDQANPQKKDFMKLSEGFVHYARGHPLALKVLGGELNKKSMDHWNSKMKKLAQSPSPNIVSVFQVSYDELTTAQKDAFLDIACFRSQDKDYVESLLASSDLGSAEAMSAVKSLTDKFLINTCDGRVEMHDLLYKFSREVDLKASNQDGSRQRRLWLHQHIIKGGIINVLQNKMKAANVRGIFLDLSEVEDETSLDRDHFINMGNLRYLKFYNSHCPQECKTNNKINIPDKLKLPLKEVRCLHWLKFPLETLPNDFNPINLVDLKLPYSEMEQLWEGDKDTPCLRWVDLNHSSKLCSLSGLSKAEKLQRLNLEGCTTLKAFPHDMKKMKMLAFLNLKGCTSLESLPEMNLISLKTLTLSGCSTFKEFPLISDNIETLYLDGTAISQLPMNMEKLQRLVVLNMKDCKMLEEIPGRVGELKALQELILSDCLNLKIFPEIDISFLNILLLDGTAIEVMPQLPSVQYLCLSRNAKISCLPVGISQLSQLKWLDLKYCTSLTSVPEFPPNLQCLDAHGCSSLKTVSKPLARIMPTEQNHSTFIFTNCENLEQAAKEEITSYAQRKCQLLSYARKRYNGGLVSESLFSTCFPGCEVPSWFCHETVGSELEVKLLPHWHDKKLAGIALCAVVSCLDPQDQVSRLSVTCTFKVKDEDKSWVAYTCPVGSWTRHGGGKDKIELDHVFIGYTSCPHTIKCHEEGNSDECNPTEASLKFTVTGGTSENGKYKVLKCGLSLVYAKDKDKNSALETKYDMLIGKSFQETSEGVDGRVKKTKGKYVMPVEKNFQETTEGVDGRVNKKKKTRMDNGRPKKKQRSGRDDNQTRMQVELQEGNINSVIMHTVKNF
B2: Disease resistance protein RPS4 (Arabidopsis thaliana (Mouse-ear cress)), Q9XGM3 (parent)
chain: B1 partner
partner: B1 chain

Variants of: B1
Details: with rps4_arath RPS4, Q9XGM3

Effect of a mutation on the interaction, disrupting interaction strength:
R20A
E128A
Y101A
D131A
S25A;H26A
D103R
D103A
S25A

Variants of: B1
Details: with rps4_arath RPS4, Q9XGM3
Remark: another data set of the same source

Effect of a mutation on the interaction, disrupting interaction strength:
H26A

Variants of: B2
Details: with wrk52_arath RRS1, P0DKH5

Effect of a mutation on the interaction, disrupting interaction strength:
K157A
R29A
S33A
E160A
R30E
R30A
S33A;H34A

Variants of: B2
Details: with wrk52_arath RRS1, P0DKH5
Remark: another data set of the same source

Effect of a mutation on the interaction, disrupting interaction strength:
H34A

— IntAct's records for PubMed 24744375
